Measured values published in PMC2654154, “Molecular Basis of Filamin A-FilGAP Interaction and Its Impairment in Congenital Disorders Associated with Filamin A Mutations” (PLoS ONE, 2009).

Legend:
FilGAP (Homo sapiens) = FilGAP (Homo sapiens) (UniProt Q8N264); settings: cited from earlier work
[1] = biological target: T1, FLAG-tagged full-length FLNa (filamin A), wild type (human, UniProt P21333 1-2647); assay: pull-down; GST-His- or MBP-His-FilGAP constructs (various concentrations) with 25 nM FLAG-FLNa on FLAG-specific mAb M2 agarose; 50 mM Tris-HCl, 150 mM NaCl, 0.1% Triton X-100, 0.1 mM EGTA, pH 7.4, 1 h, 25°C; immunoblot for GST or MBP; settings: both partners purified
T1 construct: filamin A (FLNa), human, full length; also called FLAG-FLNa; WT FLAG-FLNa; source: Sf9 insect cells (baculovirus), purified
T1 sequence (P21333 whole entry): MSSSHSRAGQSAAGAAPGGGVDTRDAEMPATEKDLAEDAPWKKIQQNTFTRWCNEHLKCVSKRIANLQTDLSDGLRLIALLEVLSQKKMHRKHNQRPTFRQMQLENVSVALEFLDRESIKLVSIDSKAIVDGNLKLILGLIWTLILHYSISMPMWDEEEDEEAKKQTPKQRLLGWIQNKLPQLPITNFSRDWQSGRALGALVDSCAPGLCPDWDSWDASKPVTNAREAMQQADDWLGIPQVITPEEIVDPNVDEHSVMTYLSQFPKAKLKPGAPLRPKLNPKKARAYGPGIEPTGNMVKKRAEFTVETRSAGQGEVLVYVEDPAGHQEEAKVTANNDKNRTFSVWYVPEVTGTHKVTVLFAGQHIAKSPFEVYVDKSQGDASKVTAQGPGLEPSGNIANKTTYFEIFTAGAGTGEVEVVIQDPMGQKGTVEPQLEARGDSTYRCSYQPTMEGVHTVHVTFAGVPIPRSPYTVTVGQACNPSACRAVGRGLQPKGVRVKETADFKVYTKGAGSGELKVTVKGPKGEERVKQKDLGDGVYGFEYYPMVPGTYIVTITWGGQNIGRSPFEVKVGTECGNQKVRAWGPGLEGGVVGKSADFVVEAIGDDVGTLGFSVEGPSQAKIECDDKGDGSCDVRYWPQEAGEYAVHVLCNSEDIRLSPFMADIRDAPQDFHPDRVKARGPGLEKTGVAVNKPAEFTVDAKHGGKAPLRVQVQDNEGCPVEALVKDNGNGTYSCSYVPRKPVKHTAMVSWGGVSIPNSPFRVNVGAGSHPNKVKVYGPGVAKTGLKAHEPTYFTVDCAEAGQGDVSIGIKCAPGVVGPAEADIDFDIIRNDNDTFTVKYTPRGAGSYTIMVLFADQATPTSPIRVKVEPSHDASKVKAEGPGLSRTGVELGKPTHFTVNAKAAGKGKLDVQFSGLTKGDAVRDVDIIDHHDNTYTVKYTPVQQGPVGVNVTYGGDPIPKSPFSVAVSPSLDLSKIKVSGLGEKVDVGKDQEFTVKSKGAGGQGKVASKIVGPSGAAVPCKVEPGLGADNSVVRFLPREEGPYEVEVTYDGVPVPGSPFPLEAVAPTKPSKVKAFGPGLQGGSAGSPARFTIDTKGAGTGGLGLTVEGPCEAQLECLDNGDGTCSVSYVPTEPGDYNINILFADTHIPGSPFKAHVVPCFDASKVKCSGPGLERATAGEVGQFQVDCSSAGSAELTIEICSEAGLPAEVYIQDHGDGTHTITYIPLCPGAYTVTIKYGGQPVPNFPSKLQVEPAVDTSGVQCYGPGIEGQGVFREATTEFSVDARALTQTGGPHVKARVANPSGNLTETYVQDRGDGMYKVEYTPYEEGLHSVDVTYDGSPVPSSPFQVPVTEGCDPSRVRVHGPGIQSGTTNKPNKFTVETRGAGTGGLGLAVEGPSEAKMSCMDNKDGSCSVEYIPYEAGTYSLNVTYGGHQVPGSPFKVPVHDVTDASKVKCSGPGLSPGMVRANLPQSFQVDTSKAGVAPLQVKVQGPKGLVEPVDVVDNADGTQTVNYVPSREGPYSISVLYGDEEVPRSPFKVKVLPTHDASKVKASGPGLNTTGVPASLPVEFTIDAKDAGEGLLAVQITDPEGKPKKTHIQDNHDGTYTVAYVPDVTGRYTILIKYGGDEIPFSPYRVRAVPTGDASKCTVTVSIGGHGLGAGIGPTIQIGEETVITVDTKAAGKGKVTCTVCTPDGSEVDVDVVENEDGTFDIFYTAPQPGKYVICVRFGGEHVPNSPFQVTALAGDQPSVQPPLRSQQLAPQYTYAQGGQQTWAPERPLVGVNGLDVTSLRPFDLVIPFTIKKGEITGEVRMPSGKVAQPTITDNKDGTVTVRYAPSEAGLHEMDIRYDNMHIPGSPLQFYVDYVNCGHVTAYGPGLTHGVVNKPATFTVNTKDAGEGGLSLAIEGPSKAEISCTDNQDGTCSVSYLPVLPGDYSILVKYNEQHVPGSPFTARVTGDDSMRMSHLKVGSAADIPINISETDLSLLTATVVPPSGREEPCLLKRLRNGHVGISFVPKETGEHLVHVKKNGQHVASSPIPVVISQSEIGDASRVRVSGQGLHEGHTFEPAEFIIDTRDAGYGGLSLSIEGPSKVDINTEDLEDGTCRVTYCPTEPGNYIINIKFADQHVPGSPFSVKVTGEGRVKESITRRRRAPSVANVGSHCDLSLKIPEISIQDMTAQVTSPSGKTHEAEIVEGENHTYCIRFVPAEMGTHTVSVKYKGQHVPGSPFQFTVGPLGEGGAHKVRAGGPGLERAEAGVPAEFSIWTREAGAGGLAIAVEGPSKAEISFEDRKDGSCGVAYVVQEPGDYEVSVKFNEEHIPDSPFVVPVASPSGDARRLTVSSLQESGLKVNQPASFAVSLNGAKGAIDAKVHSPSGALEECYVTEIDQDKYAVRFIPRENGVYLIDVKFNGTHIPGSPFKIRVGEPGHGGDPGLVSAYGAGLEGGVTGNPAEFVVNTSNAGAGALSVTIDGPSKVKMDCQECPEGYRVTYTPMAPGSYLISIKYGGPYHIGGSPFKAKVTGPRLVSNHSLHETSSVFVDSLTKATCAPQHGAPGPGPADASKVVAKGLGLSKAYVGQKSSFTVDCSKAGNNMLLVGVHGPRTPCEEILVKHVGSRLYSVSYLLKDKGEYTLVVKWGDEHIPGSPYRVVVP

[2] = biological target: T2, FLAG-FLNa L2439M (disease-related) (human, UniProt P21333 1-2647, L2439M); assay: pull-down; full-length FilGAP or His-FilGAP lacking 649–725 (50 nM in Figure 1C) mixed with increasing amounts of wild-type or mutant FLAG-FLNa, precipitated with FLAG-specific mAb on agarose; immunoblot for FilGAP or the His tag; settings: both partners purified
T2 construct: filamin A (FLNa), human, full length, transcript of the patient mutation 7315C>A; source: Sf9 cells, purified
T2 sequence (P21333 whole entry L2439M): as the sequence (P21333 whole entry) above, with L2439M counted along it

[3] = biological target: the molecule itself; assay: SEC; Superose 6 10/300 GL, 20 mM Tris-HCl pH 7.4, 150 mM NaCl, 0.5 mM EGTA, 4°C; size from calibration with standards

Q: Which Kd (FilGAP (Homo sapiens)) does the source give for filamin A (from UniProt P21333) here?
A: 200 nM

B1: GST-His-FilGAP 649–748 (C-terminal 100 residues) (domain or fragment, human, UniProt Q8N264 649-748, looked up)
chain: SSLKQEMTKQKIEYESRIKSLEQRNLTLETEMMSLHDELDQERKKFTMIEIKMRNAERAKEDAEKRNDMLQKEMEQFFSTFGELTVEPRRTERGNTIWIQ
notes: FilGAP, human, C-terminal 100 residues; also called GST-FilGAP fragment; source: E. coli (pGEX-4T-3-HT), purified
Q: Does B1 bind [1]?
A: binds

B2: full-length FilGAP, purified from Sf9 insect cells (natural protein, human, UniProt Q8N264 1-748, looked up)
chain: MEENNDSTENPQQGQGRQNAIKCGWLRKQGGFVKTWHTRWFVLKGDQLYYFKDEDETKPLGTIFLPGNKVSEHPCNEENPGKFLFEVVPGGDRDRMTANHESYLLMASTQNDMEDWVKSIRRVIWGPFGGGIFGQKLEDTVRYEKRYGNRLAPMLVEQCVDFIRQRGLKEEGLFRLPGQANLVKELQDAFDCGEKPSFDSNTDVHTVASLLKLYLRELPEPVIPYAKYEDFLSCAKLLSKEEEAGVKELAKQVKSLPVVNYNLLKYICRFLDEVQSYSGVNKMSVQNLATVFGPNILRPKVEDPLTIMEGTVVVQQLMSVMISKHDCLFPKDAELQSKPQDGVSNNNEIQKKATMGQLQNKENNNTKDSPSRQCSWDKSESPQRSSMNNGSPTALSGSKTNSPKNSVHKLDVSRSPPLMVKKNPAFNKGSGIVTNGSFSSSNAEGLEKTQTTPNGSLQARRSSSLKVSGTKMGTHSVQNGTVRMGILNSDTLGNPTNVRNMSWLPNGYVTLRDNKQKEQAGELGQHNRLSTYDNVHQQFSMMNLDDKQSIDSATWSTSSCEISLPENSNSCRSSTTTCPEQDFFGGNFEDPVLDGPPQDDLSHPRDYESKSDHRSVGGRSSRATSSSDNSETFVGNSSSNHSALHSLVSSLKQEMTKQKIEYESRIKSLEQRNLTLETEMMSLHDELDQERKKFTMIEIKMRNAERAKEDAEKRNDMLQKEMEQFFSTFGELTVEPRRTERGNTIWIQ
notes: FilGAP, human, full length; Tag-free FilGAP was prepared from His-FilGAP with TEV protease; also called Purified FilGAP; source: Sf9 cells, purified (Ni-NTA)
Q: Does B2 bind [2]?
A: binds

B3: His-tag full-length FilGAP (natural protein, human, UniProt Q8N264 1-748, looked up)
chain: B2 chain
notes: FilGAP, human, full length; also called His-FilGAP; His-tag FilGAP; source: Sf9 cells, purified (Ni-NTA)
Q: With B3 as the molecule, how does the “stoichiometry N” value [3] read?
A: 2
